The target in the test is DPP9, short isoform (His-TEV-DPP9), co-expressed with NLRP1ΔΔ for cryo-EM (human, UniProt Q86TI2-1 1-863). Nature of the test: cryo-EM structure.

This is an account of results in doi:10.1101/2020.08.14.246132 (bioRxiv, 2020).

DPP9, short isoform (His-TEV-DPP9), co-expressed with NLRP1ΔΔ for cryo-EM, sequence (Q86TI2 whole entry, stated change not applied, canonical isoform): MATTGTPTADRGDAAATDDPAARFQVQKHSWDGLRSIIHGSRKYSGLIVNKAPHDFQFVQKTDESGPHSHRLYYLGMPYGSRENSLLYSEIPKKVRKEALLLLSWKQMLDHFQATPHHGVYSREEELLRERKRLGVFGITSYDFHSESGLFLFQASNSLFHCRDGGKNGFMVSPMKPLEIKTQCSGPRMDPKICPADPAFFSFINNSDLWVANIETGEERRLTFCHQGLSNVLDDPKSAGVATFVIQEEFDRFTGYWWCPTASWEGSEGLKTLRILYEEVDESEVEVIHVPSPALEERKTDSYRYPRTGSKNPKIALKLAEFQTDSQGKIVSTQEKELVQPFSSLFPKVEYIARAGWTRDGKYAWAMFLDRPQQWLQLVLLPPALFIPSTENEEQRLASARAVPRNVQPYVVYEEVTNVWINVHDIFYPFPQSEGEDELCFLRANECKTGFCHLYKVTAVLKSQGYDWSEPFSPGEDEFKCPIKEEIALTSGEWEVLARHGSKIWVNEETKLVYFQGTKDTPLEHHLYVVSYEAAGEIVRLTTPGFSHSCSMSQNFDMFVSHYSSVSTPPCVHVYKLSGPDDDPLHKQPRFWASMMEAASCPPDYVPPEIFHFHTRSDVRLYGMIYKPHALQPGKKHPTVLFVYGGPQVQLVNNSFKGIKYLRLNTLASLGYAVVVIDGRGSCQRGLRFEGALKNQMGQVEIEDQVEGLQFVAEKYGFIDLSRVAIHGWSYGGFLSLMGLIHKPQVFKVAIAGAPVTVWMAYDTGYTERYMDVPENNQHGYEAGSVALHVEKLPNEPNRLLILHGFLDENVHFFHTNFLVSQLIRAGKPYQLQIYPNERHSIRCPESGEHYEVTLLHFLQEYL

B1: NLRP1-CT freed from NLRP1ΔΔ (UPA subdomain only), molecule B of the NLRP1^A-NLRP1^B-DPP9 ternary complex (domain or fragment, human, UniProt Q9C000-1 1213-1364, looked up)
chain: SPLGVLLKMIHNALRFIPVTSVVLLYHRVHPEEVTFHLYLIPSDCSIRKAIDDLEMKFQFVRIHKPPPLTPLYMGCRYTVSGSGSGMLEILPKELELCYRSPGEDQLFSEFYVGHLGSGIRLQVKDKKDETLVWEALVKPGDLMPATTLIPP
Turning to B1, the binding result is on record as “binds”.
